Test results taken from publication PMC6509359.
Values belong to the substance of their own block, whether it stands above or below them.

Columns and labels:
[1] = target: Chimera: Huma USP25 (157-[AIM of D. rerio USP28]-714) (human | zebrafish (Danio rerio)); assay: SEC-MALS; 100 μL of 1-2 mg/mL protein on Superdex 200 10/300, 0.5 mL/min, PBS + 2 mM DTT
[2] = target: Chimera: Human USP25 (157-[Insert of Human USP28]-714) (human); assay: as above
[3] = target: Chimera: Human USP28 (149-[Insert of Human USP25]-703) (human); assay: as above
[4] = target: D. rerio USP28 (1-738,763-1187) (zebrafish (Danio rerio)); assay: not stated; oligomeric states of purified orthologs and of full-length proteins, Figures S7A, S7B and S3J
[5] = target: D. rerio USP28 (138-684) (zebrafish (Danio rerio)); assay: as above
[6] = target: G. gallus USP25 (174-726) (chicken (Gallus gallus)); assay: as above
[7] = target: G. gallus USP25 (174-726)∼Ub-PA (chicken (Gallus gallus) | not stated); assay: as above

Substance: Chimera: Huma USP25 (157-[AIM of D. rerio USP28]-714) (domain or fragment)
stoichiometry N [1]: 2

Substance: Chimera: Human USP25 (157-[Insert of Human USP28]-714) (domain or fragment)
stoichiometry N [2]: 2

Substance: D. rerio USP28 (1-738,763-1187) (enzyme)
stoichiometry N [4]: 2

Substance: D. rerio USP28 (138-684) (domain or fragment)
stoichiometry N [5]: 2

Substance: G. gallus USP25 (174-726) (domain or fragment)
stoichiometry N [6]: 4

The remaining lines, values ahead:

stoichiometry N [3]: 2
Substance: Chimera: Human USP28 (149-[Insert of Human USP25]-703) (domain or fragment)

stoichiometry N [7]: 2
Substance: G. gallus USP25 (174-726)∼Ub-PA (from UniProt P0CG48 1-75) (complex)
